Data reported in patent US20250115656A1 (Stanford University, published 2025).

Target: the molecule itself
Assay: cryo-EM in detergent; HS-AFM in lipid bilayer
Method: Briefly, for reconstituted lipids, we used a mixture of phospholipids, asolectin from soybean (Sigma-Aldrich, No. 11145). Asolectin (120 μg) was dissolved in chloroform and then evaporated under N2 gas to completely remove the solvent. Then, the lipids were suspended in 50 μL buffer A (20 mM HEPES-KOH pH 7.4, 100 mM NaCl, and 4% DDM) and sonicated for ˜1 min with a tip-sonicator. Next, dissolved membrane proteins (1 nmol) and MSP (50 μL, 1 mg/mL) (MSP1E3D1, Sigma-Aldrich, No. M7074) were added to the lipid suspension and mixed for ˜1 h while rotating in the dark at 4° C. Finally, we added 60 mg Bio-beads SM-2 (Bio-Rad, Hercules, CA, USA, No. 1523920) and dialyzed the samples in detergent overnight at 4° C. According to the manufacturer's protocol, nanodisc samples should be fractionated on a column to purify the nanodiscs based on size (˜10 nm in diameter).
A homemade HS-AFM operated in tapping mode was used (Shibata et al., 2017, 2018). An optical beam deflection detector detected the cantilever (Olympus, Tokyo, Japan: BL-AC10DS-A2) deflection using an infrared (IR) laser at 780 nm and 0.7 mW. The IR beam was focused onto the back side of the cantilever covered with a gold film through a ×60 objective lens (Nikon, Tokyo, Japan: CFI S Plan Fluor ELWD 60×). The reflected IR beam was detected by a two-segmented PIN photodiode. […]

B1: Wild-type ChRmine (M1-R304) (other)
chain: MAHAPGTDQMFYVGTMDGWYLDTKLNSVAIGAHWSCFIVLTITTFYLGYESWTSRGPSKRTSFYAGYQEEQNLALFVNFFAMLSYFGKIVADTLGHNFGDVGPFIIGFGNYRYADYMLTCPMLVYDLLYQLRAPYRVSCSAIIFAILMSGVLAEFYAEGDPRLRNGAYAWYGFGCFWFIFAYSIVMSIVAKQYSRLAQLAQDTGAEHSLHVLKFAVFTFSMLWILFPLVWAICPRGFGWIDDNWTEVAHCVCDIVAKSCYGFALARFRKTYDEELFRLLEQLGHDEDEFQKLELDMRLSSNGER
modifications: all-trans retinal covalently linked at K257 (Schiff base)
notes: Pump-like cation-conducting channelrhodopsin, purified from Sf9 cells in GDN/CHS detergent; It forms a homotrimer; The model covers residues 10-279; also called WT ChRmine; ChRmine WT
Does B1 bind?
Result: binds
